According to the DeepSol protein solubility set:

Test: soluble on expression in E. coli; label from the status in PepcDB or PDB records

Sequence: QGMIMTSDIKLLDYLRVRRSTPALQLSEPGPSKGEIEEILRLAVRVPDHGKLAPWRFVVYRGEERVRLSEAALRIALEKNPDLDLQQQEAERTRFTRAPVVIAVISTAKPHFKIPEWEQVMSAGAVCLNVIFAANASGFAANWLTEWLAFDPAFLAEIGVSAEEKVAGYIHIGSTTFPPVERPRPELADVVTWVGDV
- soluble on expression in E. coli: soluble

Sequence: MPAKIPITDNHMHIDPRARGLEAVKEFKNSGGTHIILVTKPSWSLGIAVKKPEDYLAVFDETVEIASKIREIGVGAFPVLGVHPAEISKITEYMDLSEAVETMKKGLELAAGYVERGLAVGIKSGRPHYPVPSDVWEASNEIMEHAFSLGKEQDCAVQLHTESVQEPELKDIAERARKTGIKMYRVVKHYSPPLVKTCEELGIFPGVISVKGAIEKAIEEGTRFMMETDYIDDPDRPGAVLGPKTIPKRTIKLMETYGEEPFWTIHKENPEKVYDIEIEL
- soluble on expression in E. coli: not soluble

Sequence: MGSDKIHHHHHHMKVLQYFENPGLISRSGIGHAQRLQQEELSYTDIVLDTSPFSKDYDLIDVNTYGPKSLAMVAKARLQNRKVVYHAHSTYEDFRNSFIGSNFLSKPFKKHLIKAYRQADLIITPTPYAKSLLRSYGLKQPIVPISNGVRVSSYRRNKSKIIKFRQFLNLKENDKRKIIISVGLYFQRKGIMDFVELARRNPEHLFVWFGYTDLRIIPKKIRETVKKDHPDNCVFAGYITGDVLQGAYSGADLFLYPSYEETEGIVVLEALASSQKVLVRDIPVYNDWLHDGFDCYKASNLDEFDKRLNEILAGKVKNVSKAGHEVALKRDVSLIGPQLKKAYEEALSLPSQESR
- soluble on expression in E. coli: not soluble

Sequence: MVDRVIEMAIQQQPMTEPVGIPVIILKEGTQRSYGREALRANIMAVRAIAQILKTTYGPKGMDKMLVDSLGDITITNNGATILDKMDVAHPAAKMLVQISKGQEDEAGDGTKTTVIFAGELLKEAEKLLDINIHPTIIVEGYKEALRKASEVIESIAEPVSYDDVEKLKLIAKTSLNSKAVAEARDYFAELAVEAVRTVAERRGDRWYVDLNNIQIVKKHGGSLRDTRLVRGIVLDKEVVHPDMPRRVENARIALLDTPLEIEKPEIDLEISITSPEQIKALYEKQERILQEKIEKIAATGANVVITQKGIDDVAQHFLAKKGILAVRRVKRSDIEKIARATGARIVTDIEDLRPEDLGYAELVEERKVGEDKMVFIEGAKNPKSVTILLRGGFERLVDEAERSLHDALSVVADAIMDGKIVAGGGAVEAEVAKVLYEYASKLPGKTQLAVEAFARAVEALPQALAHNAGHDPIEVLVKLRSAHEKPENKWYGVDLDTGEIVDMWSRGVLEPMRVKLNALKAATEVASLILRIDDVIAARKEEEEKEEKRGGEEE
- soluble on expression in E. coli: soluble

Sequence: MSLYFSGEPAQIAEIKRLASGAVTPLYRRATNEGIQLFLAGSAGLLQTTEDVRFEPCPGLTAAGRGVVSPENIAFTRWLTHLQDGVLLDEQNCLMLHELWLQSGTGRRRWEELPDDARESITALFTPKRGDWCDIWSNEDVSVWWNRLCDNVLPEKTMPFDLLTVLSTRLDVEVNGFNGGVLNGVPSAYHWYTEQYGVKWPCGYEVNISSQGDNFIQVDFDTPWCQPESDVIAVLSRRFSCMLEHWYAGQGCNFCGWQRYERGELVDVLWGELEWSSPTDDDELPEVTAPEWIVDKVAHYGGEGHHHHHH
- soluble on expression in E. coli: not soluble

Sequence: MGSDKIHHHHHHMKMKEFLDLLNESRLTVTLTGAGISTPSGIPDFRGPNGIYKKYSQNVFDIDFFYSHPEEFYRFAKEGIFPMLQAKPNLAHVLLAKLEEKGLIEAVITQNIDRLHQRAGSKKVIELHGNVEEYYCVRCEKKYTVEDVIKKLESSDVPLCDDCNSLIRPNIVFFGENLPQDALREAIGLSSRASLMIVLGSSLVVYPAAELPLITVRSGGKLVIVNLGETPFDDIATLKYNMDVVEFARRVMEEGGIS
- soluble on expression in E. coli: not soluble

Sequence: MGSDKIHHHHHHMSKVSLTIPPDFILGAAASAWQTEGWSGKKAGQDSYLDLWYKQDRQVWHNGYGPAKATDFFNRYREDVALMKLAGLTHYRTSINWSRFMLDYEKGIVDEEYAAYIDNLLDEMHRQGIEPMICLEHYELPACLLEKYQGWSSKQVVEWFVLYADTVFARYAGKVKRWFTFNEPIVVQTRVYLDALRYPYEQNTHTWMQWNHHKNLATAKVVQRFRQKGYDREGGSIGVILNPEVTYPRSRAAHDVKAAHLYDLFYNRVFLDPALKGEYPAELIALLAQHQVKWDYTEEELAIIRDNTVDEVGINLYYPHRVKAPSREWNKETPFHPAYYYEHFELPGRRMNTSRGWEINPKIIYDMAKRIEREYDNVPWFVAENGIGIENEARFKDDAGVIQDDYRIAFIAEHLYWTLKAKEEGANCRGYMLWAFTDNVSPMNAFKNRYGLIEIDLEQDRQRRPKKSAAWFRQLHDTRQLELTLDDEEK
- soluble on expression in E. coli: not soluble

Sequence: MNERGMLVDPRFDAFFKLEQIDDYKYDGADTSPSTSNGLPETSNGGRLICDVCGDVAFGKHYGINACNGCKGFFRRSVWSRRQYSCRFGGDCPVVKEHRNVCRSCRLKKCFEVGMNPDSVQNERDRNAKNGGMGGPMSSPTQSSLCKELTISNGQIKRKRLRPETVEKTTQTDGKLEINDDFDFENMQQNPTPPGLLPLKIERISTPPSDLPVPMDFSIHSAVLDIEQKVFYNCPVAVDNSINATKTPITLPFEVVFRQPHLVCNRYPMRFSNTRVLTPEDLIDGWRRHFTYYSDWCHAMDEFKALSPEDQIVLAKKKIILHGWLVHAYYSYKSGCNGICFANGAAHLPEGGHPSITEFYKECMPRYLNYVIYPMHNFQMDDAEMVLIKCIMFFSSESGLSAAGRQIVSAAREKYLSALYNYGRANKCTTSAQATLRIAKFMIMLSAITSLTHLMNEGVHVTSLFNIIEFDELIQATHKTTPPQHSPPAPMG
- soluble on expression in E. coli: not soluble

Sequence: MSRSEFPNSKCLICGSICTAKFHFGGLSCNACASFFRRTVSLNIRYLCKNSNNCITSPGQRTFCKACRYESCVDKAGMKRDFVQQRRSTNATPKYILNSTSGSSNREVVRGFITDSNSHLVTQTDHLRNIDNNEHCKDMKKYSDLLEISHMNLLRFYVKQVEPEKKELKNILQIKSINDLMITCAYDNGSAMESCVHCPGTGKLSQEDVRLLQKSFQFAHTWLDSTWQYSIATDIDESEVSGESENLSQFISHIKSTLGACLANLKLDVYEFAAFKSFCVWSIGAQGATESMKVVAQEHYEAVASALKMYYKTFTSMSDSEIATRIEEISFGRSSDVQMIYDETIKLYNKIGIPKSLFFEGN
- soluble on expression in E. coli: not soluble

Sequence: MSDPAIAVLPYGMKLGPALSGLPLDQVNWPLGCPERLVGKTLGDLGAGDHLLVYPRTGTHFQLSRGTRARISLIMAEPAVIHAKHYALLRVTWRRFHRVLTFNQAAVDRLPNARLLLFGSTWVPEWQSLTPEKVAQCSLIASAKRDSTGHKLRHAVVDWVRASDQDVAVLGRGYQPFDSKADGLAPYRYSVVIENVQERNYFSEKLLDAVFCETVPIYWGCPNIADFVDTTAMILCTREEDIRRAVAEMSAEDYAARLPALRALKQQLAPYAAHEARAARMILDELLEHHHHHH
- soluble on expression in E. coli: soluble

Sequence: MNIILKISGKFFDEDNVDNLIVLRQSIKELADNGFRVGIVTGGGSTARRYIKLAREIGIGEAYLDLLGIWASRLNAYLVMFSLQDLAYMHVPQSLEEFIQDWSHGKVVVTGGFQPGQSTAAVAALVAEASSSKTLVVATNVDGVYEKDPRIYADVKLIPHLTTQDLRKILEGSQSVQAGTYELLDPLAIKIVERSKIRVIVMNYRKLNRIIDILKGEEVSSIIEPV
- soluble on expression in E. coli: soluble

Sequence: MKKIAVFADVQNLYYTVRQAYGCHFNYAALWADISKRGEIVHAFAYAIDRGDSKQQQFQQILRNLGFTVRLKPYIQRSDGSAKGEWDVGITIDIMDFAPQVDEVVLASGDGDFDMLLDRVISKHGVEAVAYGVPGLTANSLIRAASRYVPIEGALL
- soluble on expression in E. coli: soluble

Sequence: MSLSGNYLPRNTLVESLGHAMLKLSGWKIEGQLPALDKFVVIGAHHTSNWDFVAFLAAKFVLRLNARWFGKHTLFNGPLGGLMRRWGGIPIQRHLKLNTVDQAIQAFREHREFMLIIAPEGTRKKVDRWRMGFYHIARGAGVPVVPAALDYENRRIVIGEPFWPTGNEDADLCSLIGFYRPFIPKKPHYAFLGDEGHHHHHH
- soluble on expression in E. coli: soluble

Sequence: RAATQVGATTMDRPEWVAVHPDKKHVFCTLTNNKNRGKEGQPVGGPNPREKNNYGQIVRWMPAQGDHTSDVFAWDLYLIAGNPTVHKGTLYAGSENISADNMFNSPDGIGFDTAGRLWIQTDGNYSNQGDFAGQGNNQMLCGDPITGEVKRFLTGPIACEITGLTFSPDHKTMFVG
- soluble on expression in E. coli: not soluble

Sequence: MGSDKIHHHHHHMNRDYVCSEMFCMGTIISQKIYGEDKKEVLFKVENEMRRLEKAMNFYSSSSEISKLNKFGFENEIKLSKDVYHVIKNAKNFSKKTLGAFDISLAPIIKLWGIFCENERVPSVKEIEKNLSLVNYKNLVLNDYKRTVKFLVEDMKVDLGGIAKGYAADRAIDIYKGGGVKSASINLGGNVSVIGEKPDGKSWCIGVQNPLKKRGEIIGAISVKNKSVVTSGSYVRYFEKDNIKYHHIIDPKTGYPAKEELLSVTVIFENSMLCDAVSTAAFIAGADGGIELVKRFRDVEAIFITKDRKVIITKGIAKSFSLVEESGFQYL
- soluble on expression in E. coli: not soluble

Sequence: MAHHHHHHMTERSPALVPAVSLLREELQLLNGVVEGQARSRVYRHHIFFRKASFLRSALRNALPQFARRAADPTDLRTVAGRLLTLTIRCAESATLELSASHIDTVSVALLLLAITSRIGCVLCVVLGRKPETFGKLHFIGSKFGVKYKRSRSEAELAEETIGVATPIRRRTIGGVIEAVIK
- soluble on expression in E. coli: not soluble

Sequence: SRRRRSGTEPEKIEPGEGASRSRRDMLKDGGQQGLGTGARDPDKATRFRMEELRLTSTTFALTGDSAHNQAMVHWSGHNSSVILILTKLYDYNLGSITESSLWRSTDYGTTYEKLNDKVGLKTILSYLYVCPTNKRKIMLLTDPEIESSLLISSDEGATYQKYRLNFYIQSLLFHPKQEDWILAYSQDQKLYSSAEFGRRWQLIQESVVPNRFYWSVMGSSKEPDLVHLEARTVDGHSIYLTCRMQNCTEANRNKPFPGYIDPDSLIVQDDYVFVQLTSGGRPHYYVSYRRSPFAQMKLPKYALPKDMHVISTDENQVFAAVQEWNQNDTYNLYISDTRGVYFTLALENVQSSRGPEGNVMIDLYEVAGIKGMFLANKKIDNQVKTFITYNKGRDWRLLQAPDADLRGDPVHCLLPYCSLHLHLKVSENPYTSGIIASRDTAPSIIVASGNIGSELSDSDISMFVSSDAGNTWRQIFEEEHSILYLDQGGVLVAMKHTSLPIRHLWLSFDEGRSWSKYSFTSIPLFVDGVLGEPGEETLIMTVFGHFSHRSEWQLVKVDYKSIFDRRCAEEDYRPWQLHSQGEACIMGAKRIYKKRKSERKCMQGKYAGAMESEPCVCTEADFDCDYGYERHSNGQCLPAFWFNPSSLSKDCSLGQSYLNSTGYRKVVSNNCTDGVREQYTAKPQKCP
- soluble on expression in E. coli: soluble

Sequence: MEIKEVLPCIADPKKLRVIGRVDGNFPAVMPYLARLIPNASYNEKRGWISFKKGQRIITIHEDGFVAMTQIKDEDEAKSILGEIEQKAQEAWEKRNKIDLSKPLEKTVVSPFDVYNYLPKTNCKRCGEQTCMAFAVKLLNGEVDIKACKPLFEDKKYEGLRETLIGMLVAAGYDLEL
- soluble on expression in E. coli: soluble

Sequence: MSLSDKTMTADEAVSRLRSGMTLGIGGWGSRRKPMALVRALLRSGITDLTVVSCGGPDVGMLAAAGRIRKLVAAFVTLDSIPLEPHYRAARERGALELMEIDEAMFLWGLRAAAGRLPFLPVRAGIGSDVMRVNPGLRTITSPYVDGETFVAMPALRLDAALVHLNRADRLGNGQYLGPDPYFDDLFCEAADTAYVSCERVVDTAELTKEAAPQTLLVKRHTVTGVVEAPNGADFTSCVPDYGRDEALQRYYATTPWPEFAERFLGGGEPAYRSAVQDWRKEREGHHHHHH
- soluble on expression in E. coli: soluble
